In article PMC1092277:
Values belong to the molecule of their own block, whether it stands above or below them.

Key:
[1] = biological target: GST-Pax6 HD R44A/R53A/R57A (zebrafish); assay: pull-down
[2] = biological target: GST-Chx10 HD R44A (murine); assay: pull-down
[3] = biological target: GST-Pax6 HD (wild type) (zebrafish); assay: pull-down
GST-Pax6 HD R44A = GST-Pax6 HD R44A (zebrafish, UniProt P26630 229-288, R272A); assay: EMSA
GST-Chx10 HD R53A = GST-Chx10 HD R53A (mouse, UniProt Q61412 148-207, R200A); assay: EMSA
GST-Chx10 HD R53A, sequence (Q61412 148-207 R200A): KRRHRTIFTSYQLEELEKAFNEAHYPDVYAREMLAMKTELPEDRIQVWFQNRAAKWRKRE

GST-Chx10 HD R57A = GST-Chx10 HD R57A (mouse, UniProt Q61412 148-207, R204A); assay: EMSA
GST-Chx10 HD R57A, sequence (Q61412 148-207 R204A): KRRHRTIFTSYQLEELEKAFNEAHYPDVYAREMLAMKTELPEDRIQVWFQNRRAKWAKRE

GST-Chx10 HD Q50A = GST-Chx10 HD Q50A (mouse, UniProt Q61412 148-207, Q197A); assay: EMSA
GST-Chx10 HD Q50A, sequence (Q61412 148-207 Q197A): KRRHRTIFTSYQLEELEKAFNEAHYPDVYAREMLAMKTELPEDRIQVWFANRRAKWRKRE

GST-Pax6 HD R58A = GST-Pax6 HD R58A (zebrafish, UniProt P26630 229-288, R286A); assay: EMSA
GST-Pax6 HD R58A, sequence (P26630 229-288 R286A): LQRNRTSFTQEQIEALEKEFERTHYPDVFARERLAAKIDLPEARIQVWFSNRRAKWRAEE

GST-Pax6 HD R53A = GST-Pax6 HD R53A (zebrafish, UniProt P26630 229-288, R281A); assay: EMSA
GST-Pax6 HD R53A, sequence (P26630 229-288 R281A): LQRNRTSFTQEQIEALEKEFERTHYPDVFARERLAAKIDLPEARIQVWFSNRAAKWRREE

GST-Pax6 HD N51Q = GST-Pax6 HD N51Q (zebrafish, UniProt P26630 229-288, N279Q); assay: EMSA
GST-Pax6 HD N51Q, sequence (P26630 229-288 N279Q): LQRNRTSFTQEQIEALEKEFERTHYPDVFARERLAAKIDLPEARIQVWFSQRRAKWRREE

GST-Pax6 HD R57A = GST-Pax6 HD R57A (zebrafish, UniProt P26630 229-288, R285A); assay: EMSA
GST-Pax6 HD R57A, sequence (P26630 229-288 R285A): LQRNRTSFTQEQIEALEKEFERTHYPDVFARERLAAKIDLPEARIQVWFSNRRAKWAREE

GST-Pax6 HD R44A, sequence (P26630 229-288 R272A): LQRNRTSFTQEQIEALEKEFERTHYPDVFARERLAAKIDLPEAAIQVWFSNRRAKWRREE

percent binding [3]: 5%
Molecule: Pax6ΔHD(E112A/E120A/D123A/E128A)

percent binding [3]: 11%
Molecule: Pax6ΔHD(E101A/E112A/E120A/E128A)

percent residual binding [3]: 15%
Molecule: Pax6ΔHD(E112A/E120A/E128A)

The remaining lines, values behind:

Molecule: Pax6ΔHD (in vitro translated)
percent binding compared with the wild-type HD [1]: < 10%
percent binding [2]: 50%

B1: HDp3 (dsDNA)
DNA 1: GATCCTCTAGATAATGCGATTAGCGTAG
DNA 2: GATCCTACGCTAATCGCATTATCTAGAG
binding result (GST-Pax6 HD R44A): no binding
binding result (GST-Chx10 HD R53A): no binding
binding result (GST-Chx10 HD R57A): binds
binding result (GST-Chx10 HD Q50A): binds
binding result (GST-Pax6 HD R58A): binds
binding result (GST-Pax6 HD R53A): no binding
binding result (GST-Pax6 HD N51Q): no binding
binding result (GST-Pax6 HD R57A): binds
